This is an account of results in the supplement of paper PMC6755084.

The subject of the data set is F1*sub RNA substrate (template-directed ligation). The experiment in a line: fraction ligated after 30 min (ligated reads / total reads); higher = more ligase activity; sequences stand for … in GAGACCGCAACTGAAAAGTTGT…AGTTCTGCACGTAGAAGCAAAAGGC
The conditions noted are these: 42 °C. In outline:
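The ligase ribozyme variants were produced by PCR amplification of oligo-pool templates, T7 transcription and purification on gel. Their ligated and unligated forms were gel-separated, then reverse transcribed with barcoded primers before MiSeq sequencing. Core bases were filtered at a quality of ≥20, and fraction ligated per variant was ligated reads over total reads.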
With TTCACTTCGTAAGACACTTTGGATGGGTTGA [3d337], the fraction ligated came out at 0.344. The figure for TTCACTTGCGAAGACACTTTGGATGGGTTGA [3d373] is 0.702. The figure for TTCACTTGCGTAAACACTTTGGATGGGTTGA [3d375] is 0.356; for TTCACTTGCGTAAGAACTTTGGATGGGTTGA [3d377] it is 0.52. The figure for TTCACTTGCGTAAGACACTTGGATGGGTTGA [3d380] is 0.182; for TTCACTTGCGTAAGACACTTTGATGGGTTGA [3d381] it is 0.055; for TTCACTTGCGTAAGACACTTTGGAGGGTTGA [3d383] it is 0.0421. Sequence TTCACTTGCGTAAGACACTTTGGATGGGTTA [3d385] gave a fraction ligated of 0.0657. The figure for TTCACTTGCGTAAGACACTTTGGATGGGTTG [3d386] is 0.571. The figure for TTCACTTGCGTAAGACACTTTGGATGGGTTGA [2d30] is 0.777. The figure for TTCACTTGCGTAAGACACTTTGGATGGTTGA [3d384] is 0.17; for TTCACTTGCGTAAGACACTTTGGTGGGTTGA [3d382] it is 0.00525.

In turn, TTCACTTGCGTAAGACATTTGGATGGGTTGA [3d379] displayed a fraction ligated of 0.768. The figure for TTCACTTGCGTAAGACCTTTGGATGGGTTGA [3d378] is 0.311; for TTCACTTGCGTAAGCACTTTGGATGGGTTGA [3d376] it is 0.804. As to TTCACTTGCGTAGACACTTTGGATGGGTTGA [3d374], the fraction ligated was 0.736. The figure for TTCACTTGCTAAGACACTTTGGATGGGTTGA [3d372] is 0.729; for TTCACTTGGTAAGACACTTTGGATGGGTTGA [3d371] it is 0.708. Take TTCACTTGTCAAGACACTTTGGATGGGTTGA [3d402]: the fraction ligated was 0.719. Sequence TTCACTTGTCGAAACACTTTGGATGGGTTGA [3d417] registered a fraction ligated of 0.0407. With TTCACTTGTCGAAGAACTTTGGATGGGTTGA [3d419], the fraction ligated was determined as 0.45. The figure for TTCACTTGTCGAAGACACTTGGATGGGTTGA [3d422] is 0.5; for TTCACTTGTCGAAGACACTTTGATGGGTTGA [3d423] it is 0.17; for TTCACTTGTCGAAGACACTTTGGAGGGTTGA [3d425] it is 0.157. The figure for TTCACTTGTCGAAGACACTTTGGATGGGTTA [3d427] is 0.28; for TTCACTTGTCGAAGACACTTTGGATGGGTTG [3d428] it is 0.78. The figure for TTCACTTGTCGAAGACACTTTGGATGGGTTGA [2d33] is 0.775. Regarding TTCACTTGTCGAAGACACTTTGGATGGTTGA [3d426], the fraction ligated is 0.578. The figure for TTCACTTGTCGAAGACACTTTGGTGGGTTGA [3d424] is 0.0265. The figure for TTCACTTGTCGAAGACATTTGGATGGGTTGA [3d421] is 0.79. The figure for TTCACTTGTCGAAGACCTTTGGATGGGTTGA [3d420] is 0.66. The sequence TTCACTTGTCGAAGCACTTTGGATGGGTTGA [3d418] had a fraction ligated of 0.287. Take TTCACTTGTCGAGACACTTTGGATGGGTTGA [3d416]: the fraction ligated stood at 0.206. The figure for TTCACTTGTCGTAAAACTTTGGATGGGTTGA [3d442] is 0.623; for TTCACTTGTCGTAAACACTTGGATGGGTTGA [3d445] it is 0.0492. The figure for TTCACTTGTCGTAAACACTTTGATGGGTTGA [3d446] is 0.0177; for TTCACTTGTCGTAAACACTTTGGAGGGTTGA [3d448] it is 0.0223. The figure for TTCACTTGTCGTAAACACTTTGGATGGGTTA [3d450] is 0.0146. TTCACTTGTCGTAAACACTTTGGATGGGTTG [3d451] gave a fraction ligated of 0.177. The figure for TTCACTTGTCGTAAACACTTTGGATGGGTTGA [2d35] is 0.646; for TTCACTTGTCGTAAACACTTTGGATGGTTGA [3d449] it is 0.067. The figure for TTCACTTGTCGTAAACACTTTGGTGGGTTGA [3d447] is 0.0202.

In turn, TTCACTTGTCGTAAACATTTGGATGGGTTGA [3d444] came in with a fraction ligated of 0.804.

Sequence TTCACTTGTCGTAAACCTTTGGATGGGTTGA [3d443] registered a fraction ligated of 0.514. The figure for TTCACTTGTCGTAACACTTTGGATGGGTTGA [3d430] is 0.728; for TTCACTTGTCGTAAGAACTTGGATGGGTTGA [3d463] it is 0.226. The figure for TTCACTTGTCGTAAGAACTTTGATGGGTTGA [3d464] is 0.119. The figure for TTCACTTGTCGTAAGAACTTTGGAGGGTTGA [3d466] is 0.0901; for TTCACTTGTCGTAAGAACTTTGGATGGGTTA [3d468] it is 0.0936; for TTCACTTGTCGTAAGAACTTTGGATGGGTTG [3d469] it is 0.533. TTCACTTGTCGTAAGAACTTTGGATGGGTTGA [2d37] had a fraction ligated of 0.748. The figure for TTCACTTGTCGTAAGAACTTTGGATGGTTGA [3d467] is 0.279; for TTCACTTGTCGTAAGAACTTTGGTGGGTTGA [3d465] it is 0.019. The sequence TTCACTTGTCGTAAGAATTTGGATGGGTTGA [3d462] displayed a fraction ligated of 0.693.

As to TTCACTTGTCGTAAGACACTGGATGGGTTGA [3d484], the fraction ligated turned out to be 0.705. The figure for TTCACTTGTCGTAAGACACTTGATGGGTTGA [3d485] is 0.0622; for TTCACTTGTCGTAAGACACTTGGAGGGTTGA [3d487] it is 0.0171. The figure for TTCACTTGTCGTAAGACACTTGGATGGGTTA [3d489] is 0.0495. The figure for TTCACTTGTCGTAAGACACTTGGATGGGTTG [3d490] is 0.288; for TTCACTTGTCGTAAGACACTTGGATGGGTTGA [2d40] it is 0.656. Sequence TTCACTTGTCGTAAGACACTTGGATGGTTGA [3d488] came in with a fraction ligated of 0.161. The figure for TTCACTTGTCGTAAGACACTTGGTGGGTTGA [3d486] is 0.00989; for TTCACTTGTCGTAAGACACTTTATGGGTTGA [3d491] it is 0.00731. The figure for TTCACTTGTCGTAAGACACTTTGAGGGTTGA [3d493] is 0.0469; for TTCACTTGTCGTAAGACACTTTGATGGGTTA [3d495] it is 0.0395.

Sequence TTCACTTGTCGTAAGACACTTTGATGGGTTG [3d496] gave a fraction ligated of 0.298.

Sequence TTCACTTGTCGTAAGACACTTTGATGGGTTGA [2d41] came in with a fraction ligated of 0.553. The figure for TTCACTTGTCGTAAGACACTTTGATGGTTGA [3d494] is 0.0545.

The sequence TTCACTTGTCGTAAGACACTTTGGAGGGTTA [3d502] displayed a fraction ligated of 0.0179. Take TTCACTTGTCGTAAGACACTTTGGAGGGTTG [3d503]: the fraction ligated came out at 0.103. The figure for TTCACTTGTCGTAAGACACTTTGGAGGGTTGA [2d43] is 0.227. The figure for TTCACTTGTCGTAAGACACTTTGGAGGTTGA [3d501] is 0.00904. The figure for TTCACTTGTCGTAAGACACTTTGGATGGGTT [3d506] is 0.0428; for TTCACTTGTCGTAAGACACTTTGGATGGGTTA [2d45] it is 0.619; for TTCACTTGTCGTAAGACACTTTGGATGGGTTG [2d46] it is 0.792. In turn, TTCACTTGTCGTAAGACACTTTGGATGGGTTGA [1d2] displayed a fraction ligated of 0.789.

Sequence TTCACTTGTCGTAAGACACTTTGGATGGTTA [3d504] came in with a fraction ligated of 0.636. The figure for TTCACTTGTCGTAAGACACTTTGGATGGTTG [3d505] is 0.681. Sequence TTCACTTGTCGTAAGACACTTTGGATGGTTGA [2d44] had a fraction ligated of 0.739. The figure for TTCACTTGTCGTAAGACACTTTGGGGGTTGA [3d497] is 0.0262; for TTCACTTGTCGTAAGACACTTTGGTGGGTTA [3d499] it is 0.00711; for TTCACTTGTCGTAAGACACTTTGGTGGGTTG [3d500] it is 0.0269. The figure for TTCACTTGTCGTAAGACACTTTGGTGGGTTGA [2d42] is 0.0345; for TTCACTTGTCGTAAGACACTTTGGTGGTTGA [3d498] it is 0.014. The figure for TTCACTTGTCGTAAGACACTTTGTGGGTTGA [3d492] is 0.0104.

TTCACTTGTCGTAAGACATTGGATGGGTTGA [3d477] gave a fraction ligated of 0.653. The figure for TTCACTTGTCGTAAGACATTTGATGGGTTGA [3d478] is 0.0347. The figure for TTCACTTGTCGTAAGACATTTGGAGGGTTGA [3d480] is 0.0169; for TTCACTTGTCGTAAGACATTTGGATGGGTTA [3d482] it is 0.167; for TTCACTTGTCGTAAGACATTTGGATGGGTTG [3d483] it is 0.731. The sequence TTCACTTGTCGTAAGACATTTGGATGGGTTGA [2d39] yielded a fraction ligated of 0.776. The figure for TTCACTTGTCGTAAGACATTTGGATGGTTGA [3d481] is 0.25; for TTCACTTGTCGTAAGACATTTGGTGGGTTGA [3d479] it is 0.0115; for TTCACTTGTCGTAAGACCTTGGATGGGTTGA [3d470] it is 0.678. The figure for TTCACTTGTCGTAAGACCTTTGATGGGTTGA [3d471] is 0.164; for TTCACTTGTCGTAAGACCTTTGGAGGGTTGA [3d473] it is 0.073; for TTCACTTGTCGTAAGACCTTTGGATGGGTTA [3d475] it is 0.347.

TTCACTTGTCGTAAGACCTTTGGATGGGTTG [3d476] displayed a fraction ligated of 0.77.
